According to US9512178B2, “Neurogenic brain-derived neurotrophic factor peptides” (Research Foundation for Mental Hygiene, Inc., priority 2012, dated 2016):

Key:
TrkB receptor [1] = target: T1, TrkB receptor (Mus musculus, UniProt P15209); test: TrkB phosphorylation (Tyr 706) and TrkB level in primary E18 hippocampal cells, with or without K252a; assay type: cell-based; conditions: 1 μM; for increase in the phosphorylation of the TrkB receptor: 5 min, without K252a; for TrkB levels / activation of TrkB (pTrkB Tyr 706 normalized to total TrkB): 1 h
T1 construct: endogenous in cells; host or cells: primary hippocampal neurons from embryonic day 18 C57BL/6 mice
T1 sequence (P15209 32-821): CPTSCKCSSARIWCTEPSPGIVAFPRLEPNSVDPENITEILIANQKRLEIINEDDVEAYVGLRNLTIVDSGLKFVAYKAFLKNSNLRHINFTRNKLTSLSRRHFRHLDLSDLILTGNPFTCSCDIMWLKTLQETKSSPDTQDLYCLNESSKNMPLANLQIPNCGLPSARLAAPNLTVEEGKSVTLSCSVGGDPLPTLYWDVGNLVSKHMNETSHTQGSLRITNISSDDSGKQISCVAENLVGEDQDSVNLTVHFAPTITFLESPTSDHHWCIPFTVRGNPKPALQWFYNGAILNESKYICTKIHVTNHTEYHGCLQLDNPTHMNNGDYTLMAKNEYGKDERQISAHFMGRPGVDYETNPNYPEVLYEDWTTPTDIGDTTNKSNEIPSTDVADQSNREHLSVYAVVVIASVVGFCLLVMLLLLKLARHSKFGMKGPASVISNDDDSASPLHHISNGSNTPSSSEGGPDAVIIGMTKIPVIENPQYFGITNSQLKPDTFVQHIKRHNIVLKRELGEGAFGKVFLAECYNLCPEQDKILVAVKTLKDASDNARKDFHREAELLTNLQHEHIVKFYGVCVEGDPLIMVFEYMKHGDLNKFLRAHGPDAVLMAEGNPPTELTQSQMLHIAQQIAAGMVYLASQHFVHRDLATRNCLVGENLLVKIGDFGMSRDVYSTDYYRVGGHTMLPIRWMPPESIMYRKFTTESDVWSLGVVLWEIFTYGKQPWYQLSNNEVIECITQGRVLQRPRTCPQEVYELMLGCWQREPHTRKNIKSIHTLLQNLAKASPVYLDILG
Experimental: Peptides were dissolved in water in serial dilutions of 10 mM, 1 mM, 100 μM and 10 μM from which the necessary amount was added directly to the culture medium to a final concentration of 0.05 μM, 1 μM, or 10 μM. The BDNF (Peprotech, NJ, USA) was used as a reference in concentrations of 20 ng/ml (0.79 nM) and 100 ng/ml (3.95 nM). Cycloheximide (CHX) (Sigma-Aldrich, St Louis, Mo., USA) was used for blocking protein synthesis. CHX original stock was 100 mg/ml (355.4 mM) in DMSO; from a second stock of 35.54 mM in DMSO, the dilutions were made to the final concentrations of 100 μM. The K252a (CALBIOCHEM/EMD) was used to inhibit the TrkB Receptor. From a stock of 100 μM in DMSO, K252a was diluted to a final working concentration of 200 nM. The E18 primary hippocampal cells were pre-treated with CHX or K252a 1 h prior to the addition of the peptides or BDNF and a time course of these treatments for 15 min, 60 min and 2 days was studied.
Following treatment in 6-well plates, cells were washed 2× in glucose buffered saline, GBS (5.4 mM KCl, 138 mM NaCl, 22 mM glucose, and 2 mM Na—KPO pH 7.2), and then lysed by 5 min incubation on ice in 100 or 150 μl of ice-cold RIPA buffer (PBS, 1% w/v NP-40 from Fisher Scientific, 0.1% w/v SDS, and 0.5% w/v sodium desoxycholate) containing 1 mM AEBSF (Gold Biotechnology, St. Louis, Mo., USA), 10 μg/ml aprotinin (Sigma-Aldrich, St. Louis, Mo., USA), and 20 μg/ml of leupeptin and pepstatin (US Biochemicals, Cleveland, Ohio, USA), and phosphatase inhibitors: NaF, Na orthovanadate, (3-glycerophosphate, and microcystein (Sigma-Aldrich, St. Louis, Mo., USA). Extracts were prepared by collecting and pooling a minimum of 2 wells by scraping, and lysates were centrifuged at 20,000×g for 10 min at 4° C. Protein concentration of each cell lysate was determined using the BCA kit (Thermo Scientific, Rockford, Ill., USA). The lysates (7.5-20 μg total protein) were separated on 10% SDS-PAGE gels (except for BDNF where 12% gels were employed) and transferred to 0.45 μm PVDF membrane (Pall, Pensacola, Fla., USA) for probing with antibodies as noted. Blots were blocked for 1 hr at 37° C. in 1×TBST (0.05% Tween 20 in TBS) containing 5% w/v blotting grade dry milk (Bio-rad, Hercules, Calif., USA), incubated in primary antibody overnight in blocking buffer at 4° C., washed 3×10 min in TBST at room temperature, followed by incubation with secondary antibody, i.e., peroxidase-conjugated anti-mouse or anti rabbit IgG (Jackson ImmunoResearch Laboratories, West Grove, Pa., USA) diluted in blocking buffer. Blots were washed 3×10 min in TBST and immunoreactive protein bands were visualized with enhanced chemiluminescence (ECL) reagents (Pierce, Rockford, Ill., USA). The ECL films of the blots were scanned and analyzed using Multi Gauge software version 3.0 (Fujifilm, Tokyo, Japan).
The following primary antibodies were used: rabbit polyclonal anti-NFM (1:1000; Chemicon/Millipore, Billerica, Mass., USA); mouse monoclonal anti-NeuN, clone A60 (1:500; Millipore, Billerica, Mass., USA); rabbit polyclonal anti-Tuj-1, (3—III-tubulin (Covance; 1:800, Emeryville, Calif., USA); mouse monoclonal SMI 52 to the adult isoforms of MAP-2, MAP2a,b (1:1000; Covance, Emeryvilly, Calif., USA); rabbit polyclonal anti-Synapsin I (1:2000; Stressgen, Farmingdale, N.Y., USA); rabbit monoclonal anti-PSD95 (1:1000; Cell signaling, Danvers, Mass., USA); anti tau 92e (1:10000); mouse monoclonal anti-BDNF (1:1000; Calbiochem, Gibbstown, N.J., USA); rabbit polyclonal anti-TrkB (total) (1:500; Santa Cruz Biotechnology, Santa Cruz, Calif., USA); rabbit polyclonal anti-pTrkB (Tyr706) (1:400; Santa Cruz Biotechnology, Santa Cruz, Calif., USA), TrkC (1:1000; Cruz Biotechnology, Santa Cruz, Calif., USA); and pTrkY490 (1:500; Upstate USA Inc., Charlottesville, Va., USA). For loading control, the blots were developed with rabbit polyclonal antibody to GAPDH (1:2000; Santa Cruz Biotechnology, Santa Cruz, Calif., USA). […]

TrkB receptor [2] = target: T2, TrkB receptor (Homo sapiens, UniProt Q16620); test: TrkB expression in TrkB stably-expressing NIH-3T3 fibroblasts, time course; assay type: cell-based; conditions: 1 μM, 60 min
T2 construct: host or cells: NIH 3T3 fibroblasts, G418 selection
T2 sequence (Q16620 32-822): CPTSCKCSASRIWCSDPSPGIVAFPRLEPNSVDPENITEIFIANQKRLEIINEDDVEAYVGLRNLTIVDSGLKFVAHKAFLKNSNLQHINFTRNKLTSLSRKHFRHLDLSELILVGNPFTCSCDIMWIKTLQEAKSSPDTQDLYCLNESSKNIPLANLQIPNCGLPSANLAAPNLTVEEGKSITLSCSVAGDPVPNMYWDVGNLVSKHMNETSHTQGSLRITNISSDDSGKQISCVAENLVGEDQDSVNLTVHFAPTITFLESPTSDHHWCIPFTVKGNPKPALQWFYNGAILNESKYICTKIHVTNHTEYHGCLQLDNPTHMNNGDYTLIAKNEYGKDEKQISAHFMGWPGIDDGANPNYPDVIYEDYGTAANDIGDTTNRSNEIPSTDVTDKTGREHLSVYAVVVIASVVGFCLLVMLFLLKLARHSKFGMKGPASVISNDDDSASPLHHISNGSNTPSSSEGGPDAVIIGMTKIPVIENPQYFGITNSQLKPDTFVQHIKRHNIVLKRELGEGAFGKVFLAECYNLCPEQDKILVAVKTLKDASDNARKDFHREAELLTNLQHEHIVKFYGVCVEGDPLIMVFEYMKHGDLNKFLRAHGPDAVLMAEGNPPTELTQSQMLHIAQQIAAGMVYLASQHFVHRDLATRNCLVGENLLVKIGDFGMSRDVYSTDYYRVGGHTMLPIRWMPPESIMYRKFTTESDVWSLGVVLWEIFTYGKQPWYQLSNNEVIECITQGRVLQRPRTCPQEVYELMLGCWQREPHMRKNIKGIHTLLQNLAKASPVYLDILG
Experimental: To study the activation of the TrkB receptor with BDNF and/or with the peptides, NIH 3T3 cells were used, stably transfected with the TrkB receptor (obtained from Montreal Neurological Institute, Montreal, Quábec, Canada). The cell culture medium used for this cell line was: DMEM-high glucose, 10 percent normal calf serum, 1 percent glutamax, 1 percent sodium pyruvate, 1 percent penicillin-streptomycin; supplemented with the selection antibiotic G418 in a final concentration of 100 μg/ml (to guaranty the stable expression of the Trkb transgene). All Medium components were purchase from Gibco Life Technologies, Invitrogen, Grand Island, N.Y., USA.
The NIH 3T3 fibroblasts stably expressing the TrkB receptor were vehicle-treated or treated with BDNF peptides B-5 and B-3 at a concentration of 1 μM or with BDNF at a concentration of 20 ng/ml (0.79 nM) for 5, 15 or 60 min (FIG. 5E, F). […] The effect was time-dependent and was pronounced at 60 min treatment. […] The effect on the increase in expression of TrkB by Peptides B-5 and B-3 could be the way in which the peptides potentiate the BDNF pathway to avoid saturation of the receptors, and/or promote their neurotrophic effect by increasing the expressions of both BDNF (FIGS. 5A and 5B) and TrkB (FIGS. 5C through 5F).

Substance	increase in the phosphorylation of the TrkB receptor (TrkB receptor [1])	TrkB levels (TrkB receptor [1])	activation of TrkB (pTrkB Tyr 706 normalized to total TrkB) (TrkB receptor [1])	expression of the receptor TrkB (TrkB receptor [2])
Ac-I-K-R-G-CONH2 [Peptide B-5]	significant	increased	relatively weak activation	marked increase
Ac-S-KKR-CONH2 [Peptide B-3]	significant	increased	relatively weak activation	marked increase
